From patent US20260274921A1 (ADAPTOCUE, published 2026) come the findings set out here.

For test [1], the target named is T1, His-tagged CD47 extracellular domain (ECD) protein (Abclonal, CAT #RP01306) (human, UniProt Q08722 19-139).
T1 construct: extracellular domain; Bought; also called recombinant human CD47 protein with His-tag; His-tag human CD47 ECD protein
The experiment in a line: ELISA, immobilized His-tagged CD47 ECD, fusion protein as analyte.

Test [2] addresses T2, human CD47 (cluster of differentiation 47), on cells (human, UniProt Q08722 19-323).
T2 construct: whole, on cells; also called IAP; integrin-associated protein
In words: FACS on primary human platelets, pH 7.3. The protocol: Human primary platelets were seeded into 96-well plate at 1×10⁶/well and incubated with Fc blocking antibody at room temperature. […] After washing the platelets with 1×PBS+2% FBS at pH 7.3, FITC-labelled anti-human IgG Fc secondary antibody (Abcam, CAT #ab6854) were added and incubated at 4° C. for 30 minutes at pH 7.3. After washing, the platelets were then analyzed by FACS in 1×PBS+2% FBS at pH 7.3.

B1: MP-24, SIRPαV2 IgV WT-IgG1 Fc hole silent + aCD3 VH-CH1-IgG1 Fc knob silent + aCD3 VL-CL (bispecific antibody)
chain: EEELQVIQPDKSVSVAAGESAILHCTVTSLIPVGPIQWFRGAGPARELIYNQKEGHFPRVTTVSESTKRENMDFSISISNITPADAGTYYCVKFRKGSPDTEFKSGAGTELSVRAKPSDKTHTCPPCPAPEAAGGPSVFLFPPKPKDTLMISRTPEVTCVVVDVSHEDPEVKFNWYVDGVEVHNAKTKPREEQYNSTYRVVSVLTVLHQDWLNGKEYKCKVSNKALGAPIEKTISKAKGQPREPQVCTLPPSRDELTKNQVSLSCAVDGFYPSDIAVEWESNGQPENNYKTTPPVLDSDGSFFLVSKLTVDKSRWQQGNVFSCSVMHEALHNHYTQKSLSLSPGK
heavy: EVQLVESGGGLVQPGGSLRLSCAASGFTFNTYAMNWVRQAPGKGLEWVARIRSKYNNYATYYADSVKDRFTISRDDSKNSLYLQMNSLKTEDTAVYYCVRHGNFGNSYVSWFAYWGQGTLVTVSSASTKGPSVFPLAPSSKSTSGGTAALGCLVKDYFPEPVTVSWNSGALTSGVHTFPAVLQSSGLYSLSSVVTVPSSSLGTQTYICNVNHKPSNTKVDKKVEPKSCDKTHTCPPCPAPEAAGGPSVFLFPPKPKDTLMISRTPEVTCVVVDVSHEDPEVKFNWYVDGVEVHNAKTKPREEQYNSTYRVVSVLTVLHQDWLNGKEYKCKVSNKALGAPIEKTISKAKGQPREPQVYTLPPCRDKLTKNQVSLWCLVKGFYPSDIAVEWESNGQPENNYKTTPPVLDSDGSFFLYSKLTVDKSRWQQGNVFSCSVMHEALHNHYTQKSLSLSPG
light: QAVVTQEPSLTVSPGGTVTLTCRSSTGAVTTSNYANWVQQKPGQAPRGLIGGTNKRAPWTPARFSGSLLGGKAALTITGAQAEDEADYYCALWYSNLWVFGGGTKLTVLGQPKAAPSVTLFPPSSEELQANKATLVCLISDFYPGAVTVAWKADSSPVKAGVETTTPSKQSNNKYAASSYLSLTPEQWKSHRSYSCQVTHEGSTVEKTVAPTECS
notes: Format FV-67; one wild type SIRPαV2 IgV monomer; also called monovalent wild type SIRPαV2 IgV-IgG1 Fc protein
On to B1, for which the binding result in test [1] and in test [2] was “binds” throughout.
